# The supplement of paper PMC7877785
# ± gives the uncertainty stated by the source.
# Assay: self-splicing fitness, log relative to wild type (ln ratio); higher = more splicing; Tetrahymena group I intron in knt gene, E. coli kanamycin selection, DiMSum; sequences stand for … in CUCUCU…GGAGGGAAAAGUUAUCAGGCAUGCACCUGGUAGCUAGUCUUUAAACCAAUAGAUUGCAUCGGUUUAAAAGGCAAGACCGUCAAAUUGCGGGAAAGGGGUCAACAGCCGUUCAGUACCAAGUCUCAGGGGAAACUUUGAGAUGGCCUUGCAAAGGGUAUGGUAAUAAGCUGACGGACAUGGUCCUAACCACGCAGCCAAGUCCUAAGUCAACAGAUCUUCUGUUGAUAUGGAUGCAGUUCACAGACUAAAUGUCGGUCGGGGAAGAUGUAUUCUUCUCAUAAGAUAUAGUCGGACCUCUCCUUAAUGGGAGCUAGCGGAUGAAGUGAUGCAACACUGGAGCCGCUGGGAACUAAUUUGUAUGCGAAAGUAUAUUGAUUAGUUUUGGAGUACUCGUGGUCG
# Summary of the method: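 A randomised library covering all eight P1ex-region intron nucleotides was built with the intron in the knt kanamycin-resistance gene on pET-22b(+) and held in E. coli BL21(DE3). Cells were grown overnight at 37°C or 30°C on LB agar, with or without 25 μg/mL kanamycin, plus 100 μg/mL carbenicillin, 50 μM IPTG and 0.2% rhamnose, and pooled colonies were amplicon-sequenced on an Illumina HiSeq 2500. DiMSum fitness is the error-weighted combination of wild-type-normalised replicate fold changes, kanamycin versus none.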
Sequence,self-splicing fitness (ln) (30 °C),self-splicing fitness (ln) (37 °C)
CCCCAGCAAUAUUACGGUCG,-2.24 ± 0.068,-1.2 ± 0.078
CCCCAGCAAUAUUACGGUCU,-3.81 ± 0.13,-2.73 ± 0.17
CCCCAGCAAUAUUACGUAUA,-4.57 ± 0.34,-3.21 ± 0.28
CCCCAGCAAUAUUACGUAUC,-3.88 ± 0.21,-3.84 ± 0.21
CCCCAGCAAUAUUACGUCAA,-3.29 ± 0.12,-3 ± 0.16
CCCCAGCAAUAUUACGUCCU,-2.36 ± 0.17,-2.14 ± 0.22
CCCCAGCAAUAUUACGUCUU,-3.9 ± 0.12,-2.04 ± 0.12
CCCCAGCAAUAUUACGUUAA,-3.33 ± 0.14,-2.76 ± 0.13
CCCCAGCAAUAUUACGUUAU,-4.15 ± 0.15,-3.29 ± 0.22
CCCCAGCAAUAUUACGUUUG,-4.17 ± 0.15,-2.51 ± 0.12
CCCGAGCAAUAUUACGAAAA,-2.67 ± 0.46,-1.74 ± 0.42
CCCGAGCAAUAUUACGACAA,-2.78 ± 0.3,-2.85 ± 0.41
CCCGAGCAAUAUUACGACUU,-3.24 ± 0.26,-3.01 ± 0.25
CCCGAGCAAUAUUACGCAAU,-3.57 ± 0.25,-2.94 ± 0.29
CCCGAGCAAUAUUACGCCAG,-2.69 ± 0.38,–
CCCGAGCAAUAUUACGCGCC,–,-1.22 ± 0.35
CCCGAGCAAUAUUACGCUUU,–,-1.35 ± 0.19
CCCGAGCAAUAUUACGGACA,-2.72 ± 0.16,-1.19 ± 0.12
CCCGAGCAAUAUUACGGUAA,-3.81 ± 0.26,-1.46 ± 0.16
CCCGAGCAAUAUUACGUAAU,-4.75 ± 0.45,-2.63 ± 0.32
CCCGAGCAAUAUUACGUACA,-2.87 ± 0.19,-2.25 ± 0.24
CCCGAGCAAUAUUACGUCCG,-2.11 ± 0.4,-1.98 ± 0.36
CCCGAGCAAUAUUACGUCGU,-2.45 ± 0.12,-3.06 ± 0.24
CCCGAGCAAUAUUACGUUCA,-3 ± 0.16,-2.99 ± 0.22

Sequence,self-splicing fitness (ln) (30 °C),self-splicing fitness (ln) (37 °C)
CCCUAGCAAUAUUACGACAG,-2.34 ± 0.13,-3.3 ± 0.29
CCCUAGCAAUAUUACGACCA,-3.35 ± 0.24,-3.33 ± 0.27
CCCUAGCAAUAUUACGAGUU,-2.39 ± 0.14,-3.11 ± 0.2
CCCUAGCAAUAUUACGAUCG,-3.91 ± 0.35,-1.47 ± 0.18
CCCUAGCAAUAUUACGGACA,-2.94 ± 0.32,-2.62 ± 0.24
CCCUAGCAAUAUUACGGGCC,-3.25 ± 0.19,-1.74 ± 0.27
CCCUAGCAAUAUUACGGGCU,-4.04 ± 0.25,-2.71 ± 0.18
CCCUAGCAAUAUUACGGUCG,-2.02 ± 0.068,-0.697 ± 0.092
CCCUAGCAAUAUUACGUCAG,-3.8 ± 0.18,-2.91 ± 0.18
CCCUAGCAAUAUUACGUCGU,-3.42 ± 0.2,-1.43 ± 0.19
CCCUAGCAAUAUUACGUGAU,-2.33 ± 0.076,-2.27 ± 0.14
CCCUAGCAAUAUUACGUGCA,-3.99 ± 0.18,-2.92 ± 0.14
CCCUAGCAAUAUUACGUGCU,-2.99 ± 0.17,-2.58 ± 0.24
CCCUAGCAAUAUUACGUUCC,-2.3 ± 0.22,-2.11 ± 0.24
CCGAAGCAAUAUUACGAAGU,-3.15 ± 0.19,-2.8 ± 0.29
CCGAAGCAAUAUUACGACCU,-3.73 ± 0.32,-2.3 ± 0.36
CCGAAGCAAUAUUACGAGGG,-3 ± 0.18,-1.73 ± 0.22
CCGAAGCAAUAUUACGAUGU,-3.33 ± 0.27,-1.86 ± 0.15
CCGAAGCAAUAUUACGCGCG,-1.23 ± 0.11,0.0615 ± 0.12
CCGAAGCAAUAUUACGGCAA,-3.61 ± 0.38,-1.98 ± 0.38
CCGAAGCAAUAUUACGGCAC,-4.15 ± 0.31,-2.37 ± 0.33
CCGAAGCAAUAUUACGGCGG,-3.48 ± 0.15,-2.15 ± 0.17
CCGAAGCAAUAUUACGGUCA,-3.56 ± 0.2,-2.55 ± 0.18
CCGAAGCAAUAUUACGUAUC,-2.92 ± 0.24,-3.03 ± 0.25
